This passage reports abundance fitness results from the Human Domainome abundance scans (Beltran et al. 2025).

B1: Tumor protein p73, residues 487 to 549; numbered along this chain, O15350 (parent)
chain: YHADPSLVSFLTGLGCPNCIEYFTSQGLQSIYHLQNLTIEDLGALKIPEQYRMTIWRGLQDLK

± gives the uncertainty stated by the source.

In this series the parent is B1. Kind of series: abundance fitness (aPCA) (normalised: wild type 0, dead -1); higher = more abundant; growth selection in yeast, the domain comes from the species named. The note with it: Homo sapiens.
Turning to YHADPSLVSFLTGLGCPNCIEYFTSQGLQSIYHLQNLTIEDLGALKPPEQYRMTIWRGLQDLK, the abundance fitness was -1.07 ± 0.17.

Take YHADPSLVSFLTGLGCPNCIEYFTSQGLQSIYHLQNLTIEDLGALKVPEQYRMTIWRGLQDLK: the abundance fitness came out at 0.071 ± 0.026. Regarding YHADPSLVSFLTGLGCPNCIEYFTSQGLQSIYHLQNLTIEDLGALKYPEQYRMTIWRGLQDLK, the abundance fitness is -0.824 ± 0.17.

YHADPSLVSFLTGLGCPNCIEYFTSQGLQSIYHLQNLTIEDLGALKRPEQYRMTIWRGLQDLK: the abundance fitness is -0.962 ± 0.063.

As for YHADPSLVSFLTGLGCPNCIEYFTSQGLQSIYHLQNLTIEDLGALKQPEQYRMTIWRGLQDLK, the abundance fitness is -0.985 ± 0.088. Next, YHADPSLVSFLTGLGCPNCIEYFTSQGLQSIYHLQNLTIEDLGALKTPEQYRMTIWRGLQDLK: -0.431 ± 0.061. For YHADPSLVSFLTGLGCPNCIEYFTSQGLQSIYHLQNLTIEDLGALKSPEQYRMTIWRGLQDLK the value was -0.95 ± 0.083; for YHADPSLVSFLTGLGCPNCIEYFTSQGLQSIYHLQNLTIEDLGALKWPEQYRMTIWRGLQDLK, -0.925 ± 0.053; for YHADPSLVSFLTGLGCPNCIEYFTSQGLQSIYHLQNLTIEDLGALKIIEQYRMTIWRGLQDLK, -0.144 ± 0.18. Next, YHADPSLVSFLTGLGCPNCIEYFTSQGLQSIYHLQNLTIEDLGALKIEEQYRMTIWRGLQDLK: -0.067 ± 0.042; YHADPSLVSFLTGLGCPNCIEYFTSQGLQSIYHLQNLTIEDLGALKILEQYRMTIWRGLQDLK: -1.1 ± 0.12. Regarding YHADPSLVSFLTGLGCPNCIEYFTSQGLQSIYHLQNLTIEDLGALKIKEQYRMTIWRGLQDLK, the abundance fitness is -0.212 ± 0.043. Next, YHADPSLVSFLTGLGCPNCIEYFTSQGLQSIYHLQNLTIEDLGALKIFEQYRMTIWRGLQDLK: -1.3 ± 0.37; YHADPSLVSFLTGLGCPNCIEYFTSQGLQSIYHLQNLTIEDLGALKINEQYRMTIWRGLQDLK: -0.261 ± 0.1; YHADPSLVSFLTGLGCPNCIEYFTSQGLQSIYHLQNLTIEDLGALKIWEQYRMTIWRGLQDLK: -1.07 ± 0.13. For the variant YHADPSLVSFLTGLGCPNCIEYFTSQGLQSIYHLQNLTIEDLGALKIREQYRMTIWRGLQDLK, the abundance fitness was -0.42 ± 0.038. Regarding YHADPSLVSFLTGLGCPNCIEYFTSQGLQSIYHLQNLTIEDLGALKICEQYRMTIWRGLQDLK, the abundance fitness was -0.51 ± 0.071. Next, YHADPSLVSFLTGLGCPNCIEYFTSQGLQSIYHLQNLTIEDLGALKITEQYRMTIWRGLQDLK: -0.247 ± 0.05; YHADPSLVSFLTGLGCPNCIEYFTSQGLQSIYHLQNLTIEDLGALKIDEQYRMTIWRGLQDLK: -0.054 ± 0.051. On to YHADPSLVSFLTGLGCPNCIEYFTSQGLQSIYHLQNLTIEDLGALKIHEQYRMTIWRGLQDLK, for which the abundance fitness was -0.389 ± 0.083. For YHADPSLVSFLTGLGCPNCIEYFTSQGLQSIYHLQNLTIEDLGALKISEQYRMTIWRGLQDLK the value was -0.149 ± 0.037; for YHADPSLVSFLTGLGCPNCIEYFTSQGLQSIYHLQNLTIEDLGALKIVEQYRMTIWRGLQDLK, -0.924 ± 0.089.

Take YHADPSLVSFLTGLGCPNCIEYFTSQGLQSIYHLQNLTIEDLGALKIMEQYRMTIWRGLQDLK: the abundance fitness is -0.965 ± 0.091. YHADPSLVSFLTGLGCPNCIEYFTSQGLQSIYHLQNLTIEDLGALKIYEQYRMTIWRGLQDLK: the abundance fitness was -1.13 ± 0.21. Next, YHADPSLVSFLTGLGCPNCIEYFTSQGLQSIYHLQNLTIEDLGALKIAEQYRMTIWRGLQDLK: -0.091 ± 0.043; YHADPSLVSFLTGLGCPNCIEYFTSQGLQSIYHLQNLTIEDLGALKIGEQYRMTIWRGLQDLK: -0.173 ± 0.036. For YHADPSLVSFLTGLGCPNCIEYFTSQGLQSIYHLQNLTIEDLGALKIQEQYRMTIWRGLQDLK the value was -0.208 ± 0.044. Next, YHADPSLVSFLTGLGCPNCIEYFTSQGLQSIYHLQNLTIEDLGALKIPAQYRMTIWRGLQDLK: 0.007 ± 0.039; YHADPSLVSFLTGLGCPNCIEYFTSQGLQSIYHLQNLTIEDLGALKIPIQYRMTIWRGLQDLK: -0.254 ± 0.41.

On to YHADPSLVSFLTGLGCPNCIEYFTSQGLQSIYHLQNLTIEDLGALKIPNQYRMTIWRGLQDLK, for which the abundance fitness amounted to 0.077 ± 0.12.

As to YHADPSLVSFLTGLGCPNCIEYFTSQGLQSIYHLQNLTIEDLGALKIPFQYRMTIWRGLQDLK, the abundance fitness is -0.355 ± 0.23. For YHADPSLVSFLTGLGCPNCIEYFTSQGLQSIYHLQNLTIEDLGALKIPCQYRMTIWRGLQDLK, the abundance fitness is -0.061 ± 0.052. Next, YHADPSLVSFLTGLGCPNCIEYFTSQGLQSIYHLQNLTIEDLGALKIPDQYRMTIWRGLQDLK: 0.105 ± 0.063; YHADPSLVSFLTGLGCPNCIEYFTSQGLQSIYHLQNLTIEDLGALKIPSQYRMTIWRGLQDLK: -0.056 ± 0.037. For YHADPSLVSFLTGLGCPNCIEYFTSQGLQSIYHLQNLTIEDLGALKIPLQYRMTIWRGLQDLK the value was -0.042 ± 0.036; for YHADPSLVSFLTGLGCPNCIEYFTSQGLQSIYHLQNLTIEDLGALKIPRQYRMTIWRGLQDLK, 0.028 ± 0.039.

With YHADPSLVSFLTGLGCPNCIEYFTSQGLQSIYHLQNLTIEDLGALKIPTQYRMTIWRGLQDLK, the abundance fitness is -0.036 ± 0.041. Next, YHADPSLVSFLTGLGCPNCIEYFTSQGLQSIYHLQNLTIEDLGALKIPKQYRMTIWRGLQDLK: -0.014 ± 0.05; YHADPSLVSFLTGLGCPNCIEYFTSQGLQSIYHLQNLTIEDLGALKIPQQYRMTIWRGLQDLK: -0.045 ± 0.064; YHADPSLVSFLTGLGCPNCIEYFTSQGLQSIYHLQNLTIEDLGALKIPHQYRMTIWRGLQDLK: -0.047 ± 0.051. Next, YHADPSLVSFLTGLGCPNCIEYFTSQGLQSIYHLQNLTIEDLGALKIPPQYRMTIWRGLQDLK: 0.026 ± 0.066. Consider YHADPSLVSFLTGLGCPNCIEYFTSQGLQSIYHLQNLTIEDLGALKIPVQYRMTIWRGLQDLK, for which the abundance fitness worked out at 0.009 ± 0.033.

For the variant YHADPSLVSFLTGLGCPNCIEYFTSQGLQSIYHLQNLTIEDLGALKIPGQYRMTIWRGLQDLK, the abundance fitness is -0.123 ± 0.034.
